Assay results reported in patent publication US20230272086A1 (CHIA TAI TIANQING PHARMACEUTICAL GROUP, published 2023).

Assays:
Experiment in all cases: ELISA, plate coated with 2 µg/mL receptor
[1] = molecular target: T1, IL1R1/CD121a (Sino biological, 10126-H08H) (UniProt P14778 18-332)
T1 construct: Bought protein
T1 sequence (looked up): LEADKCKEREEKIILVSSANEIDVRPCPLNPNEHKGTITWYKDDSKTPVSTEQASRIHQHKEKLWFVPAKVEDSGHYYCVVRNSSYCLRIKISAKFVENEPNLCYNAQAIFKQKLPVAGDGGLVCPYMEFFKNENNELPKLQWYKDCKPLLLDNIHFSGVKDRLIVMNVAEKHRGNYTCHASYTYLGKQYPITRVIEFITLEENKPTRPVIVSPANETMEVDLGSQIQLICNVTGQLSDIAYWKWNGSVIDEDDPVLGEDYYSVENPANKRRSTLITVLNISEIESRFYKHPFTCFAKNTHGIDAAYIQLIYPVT
Procedure: (§1) The anti-ST2 antibodies were diluted with PBS buffer to a concentration of 1.5 mg/mL. After being treated at 72° C. for 5 min, the samples were assayed by ELISA for their binding activity for an antigen The ELISA procedure is as follows: A 96-well plate was coated with 2 µg/mL hST2-ECD-mFc as the antigen at 100 µL/well and incubated at 4° C. overnight. After the antigen not adsorbed was well washed off, the non-specific binding sites were blocked with a blocking buffer (PBST containing 1% bovine serum albumin). After the plate was washed three times with a washing buffer (PBST, PBS containing 0.05% (v/v) Tween 20), the anti-ST2 antibodies (serially diluted 3-fold from an initial concentration of 1.5 µg/mL to 8 concentrations) were added at 100 µL/well, and the plate was incubated at 37° C. for 1 h. […] After the plate was incubated at room temperature for 5 min, a stop solution (2 N H₂SO₄) was added to stop the reactions. The signals were read at 450 nm using a plate reader (PE, Envision). The data were analyzed using GraphPad Prism5, and the EC₅₀ values were calculated.
(§2) ST2 belongs to the IL1R receptor family. The cross-reactivity of the anti-ST2 antibodies with the IL1R family receptors was determined by ELISA. The IL1R family receptors include IL1R⅟CD121a (Sino biological, 10126-H08H), IL1R2/CD121b (Sino biological, 10111-H08H), IL1R3/IL1RAP (Sino biological, 10121-H08H), IL1R7/IL-18RAcP (Sino biological, 10176-H08H), IL1R8/IL1RAPL1 (Sino biological, 10177-H08H), and IL1R9/IL1RAPL2 (Sino biological, 10156-H08H). ELISA assays were performed using the proteins described above as antigens (2 µg/mL). See Example 13 for the specific ELISA procedure. No binding means that the antibody remains unbound to the antigen when at the highest concentration.

[2] = molecular target: T2, IL1R2/CD121b (Sino biological, 10111-H08H) (UniProt P27930 14-343)
T2 construct: Bought protein
T2 sequence (looked up): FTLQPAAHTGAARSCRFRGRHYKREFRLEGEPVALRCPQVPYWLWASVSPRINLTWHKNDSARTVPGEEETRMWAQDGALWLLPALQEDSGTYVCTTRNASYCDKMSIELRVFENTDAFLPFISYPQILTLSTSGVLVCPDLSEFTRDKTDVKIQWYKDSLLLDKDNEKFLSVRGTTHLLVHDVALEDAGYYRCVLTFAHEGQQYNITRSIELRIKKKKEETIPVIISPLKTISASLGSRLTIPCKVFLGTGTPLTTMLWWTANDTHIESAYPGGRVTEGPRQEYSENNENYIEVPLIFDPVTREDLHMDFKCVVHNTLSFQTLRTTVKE
Procedure: as §1, §2

[3] = molecular target: T3, IL1R3/IL1RAP (Sino biological, 10121-H08H) (UniProt Q9NPH3 21-359)
T3 construct: Bought protein
T3 sequence (looked up): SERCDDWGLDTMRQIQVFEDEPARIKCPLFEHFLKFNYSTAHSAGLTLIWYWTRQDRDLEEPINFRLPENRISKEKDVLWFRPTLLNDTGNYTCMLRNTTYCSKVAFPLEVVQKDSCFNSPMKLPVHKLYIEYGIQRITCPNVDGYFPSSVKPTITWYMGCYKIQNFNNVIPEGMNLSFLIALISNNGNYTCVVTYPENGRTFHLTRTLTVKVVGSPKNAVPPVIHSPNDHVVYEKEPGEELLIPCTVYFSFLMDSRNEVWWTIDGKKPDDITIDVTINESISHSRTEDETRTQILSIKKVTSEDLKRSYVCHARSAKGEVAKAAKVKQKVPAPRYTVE
Procedure: as §1, §2

[4] = molecular target: T4, IL1R8/IL1RAPL1 (Sino biological, 10177-H08H) (UniProt Q9NZN1 19-357)
T4 construct: Bought protein
T4 sequence (looked up): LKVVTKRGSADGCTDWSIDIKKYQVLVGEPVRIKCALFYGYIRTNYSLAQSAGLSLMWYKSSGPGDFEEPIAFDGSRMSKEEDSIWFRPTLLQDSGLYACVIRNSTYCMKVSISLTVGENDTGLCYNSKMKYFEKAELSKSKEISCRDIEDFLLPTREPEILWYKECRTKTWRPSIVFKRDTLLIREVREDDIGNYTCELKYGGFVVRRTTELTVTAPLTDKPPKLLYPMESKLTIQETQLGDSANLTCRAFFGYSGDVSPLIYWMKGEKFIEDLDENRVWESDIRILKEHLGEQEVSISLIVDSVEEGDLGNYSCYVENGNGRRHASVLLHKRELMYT
Procedure: as §1, §2

Measured: binding result

B1: RG6149 (antibody Ab2 in CN104334582, prepared in-house) (antibody, human IgG2, kappa, V domains shown)
VH: EVQLVQSGAEVKKPGESLKISCKGSGYSFTNYWIGWVRQMPGKGLEWMGIIYPGNSDTRFSPSFQGQVTISADKSITTAYLQWSSLKASDTAMYYCARHGTSSDYYGLDVWGQGTTVTVSS
VL: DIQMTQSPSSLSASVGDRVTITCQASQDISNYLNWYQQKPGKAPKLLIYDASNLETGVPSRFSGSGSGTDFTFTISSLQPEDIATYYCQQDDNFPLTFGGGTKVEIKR
notes: Control anti-ST2 antibody
no binding: all assays above

B2: GSK3772847 (antibody STLM208 in CN104411333, prepared in-house) (antibody, human IgG2, kappa, V domains shown)
VH: EVQLLESGGGLVQPGGSLRLSCAASGFTFSIYDMIWVRQAPGKGLEWVSSIRGEGGGTYYADSVKGRFTISRDNSKNTLYLQMNSLRAEDTAVYYCARDPWSTEGSFFVLDYWGQGTLVTVSS
VL: EIVLTQSPATLSLSPGERATLSCRASQSVDDDLAWYQQKPGQAPRLLIYDASNRATGIPARFSGSGSGTDFTLTISSLEPEDFAVYYCQQYITAPLTFGQGTKVEIKR
notes: Control anti-ST2 antibody
no binding: [1] | [3] | [4]

B3: Chimeric 31C8 (antibody, human IgG2, kappa, V domains shown)
VH: QVQLQQSGPELVRPGASVTLSCKASGYIFIDSEMHWVKQTPVHGLEWIGAIDPETGDTVYNQKFKGKATLTADKSSSTASMELSSLTSEDSAVYYCTGSTTDYYFAYWGQGTTLTVSS
VL: DIVMTQAAFSNPVTLGTSASISCRSSKSLLHSNGIIYLYWYLQKPGQSPQLLIYQMSNLASGVPDRFSSSGSGTDFTLRISRVEAEDVGVYYCAQNLELPFTFGSGTKLEIKR
notes: also called xi31C8
no binding: all assays above

B4: Humanized 31C8-1.1 (antibody, human IgG2, kappa, V domains shown)
VH: EVQLVQSGAEVKKPGATVKISCKASGYIFIDSEMHWVQQAPGKGLEWMGAIDPETGDTVYAEKFQGRVTITADKSSSTAYMELSSLRSEDTAVYYCTGSTTDYYFAYWGQGTLVTVSS
VL: DIQMTQSPSSLSASVGDRVTITCRSSKSLLHSNGIIYLYWYQQKPGKAPKLLIYQLSNLASGVPSRFSSSGSGTDFTLTISSLQPEDFATYYCAQNLELPFTFGQGTKVEIKR
notes: also called hz31C8-1.1; hz31C81-1.1
no binding: all assays above

B5: Humanized 31C8-1.2 (antibody, human IgG2, kappa, V domains shown)
VH: QVQLVQSGAKVKKPGATVKISCKASGYIFIDSEMHWVQQAPGKGLEWMGAIDPETGDTVYAKKFKGRVTITADKSSSTAYMELSSLRSEDTAVYYCTGSTTDYYFAYWGQGTLVTVSS
VL: DIQMTQSPSSLSASVGDRVTITCRSSKSLLHSNGIIYLYWYQQKPGKAPKLLIYQLSNLASGVPSRFSSSGSGTDFTLTISSLQPEDFATYYCAQNLELPFTFGQGTKVEIKR
notes: also called hz31C8-1.2; hz31C81-1.2
no binding: all assays above
